{"source": "patent US20260258115A1", "binders": {"B1": {"name": "ADI-41198 (antibody, V domains shown)", "VH": "EVQLVQSGGVVIQPGGSLRLSCAASGFSFDEYLMHWVRQLPGKGLEWVALISWHGDITYYADSVKGRFTISRDNSRYSLYLQMNSLRSDDTALYYCVKDGWIEGAFNHTFGIGYYFENWGQGTLVTVSS", "VL": "DIVLTQTPSSLSASVGDRVTITCQASQDINNCLNWYQQKPGKAPEVLIFDASNLETGVPLRFSGSGSGTHFTLTISSLQPEDIATYYCQQHENVPLTFGGGTKVEIK"}, "B2": {"name": "ADI-41193 (antibody, V domains shown)", "VH": "EVQLVESGGGLVKPGMSLRLSCAASGFRFSDHYMNWIRQAPGKGLEWVSYISSSSTYTDYTDSVKGRFTISRDNSKNSVYLQMNSLRAEDTAIYYCARVAPIRHNGDYIDYWGQGTTVTVSS", "VL": "NFMLTQPPSASGTPGQRVTISCTGSSSNIGAGYDVHZYQQIPGTAPKLLIYGNNNRPSGVPDRFSGSKSGTSASLAITGLQTEDEADYYCQSYDRGLSGRVFGTGTKVTVL"}, "B3": {"name": "ADI-41210 (antibody, V domains shown)", "VH": "QVQLVQSGAEVKKPGASVKVSCKASGYTFNNYGISWVRQAPGQGLEWMGWISAYNGDIKYAQKFQGRVTVTTDTSTSTAYMELRSLRSDDTAVYYCARDTPVGGGTQTFDYWGQGTLVTVSS", "VL": "ETTLTQSPLSLPVTLGQPASISCRSSQSLVHSNGNTYLNWFQQRPGQSPRRLIYTVSNRDSGVPDRFSGSGSGTDFTLKISRVEAEDVGVYYCMQATHRPGTFGQGTKVEIK"}, "B4": {"name": "ADI-41227 (antibody, V domains shown)", "VH": "RSSWCSVGAEVKKRGSSVKVSCKASGGTFGGYAVSWVRQAPGQGLEWMGGIIPMFYTTKYAQKLQGRVTITADESTNTAYMDLSSLTSDDTAIYFCAREWHLGRTAVTGTGAFLDAFDIWGQGTMVTVSS", "VL": "SYELTQPPSVSEAPRQRVTISCSGSSSNIGNNAVNWYQQLPGKAPKLLIYYDDLLPSGVSDRFSGSKSGTSASLAISGLQSEDEADYYCSAWDDSLNGWVFGGGTKLTVL"}, "B5": {"name": "ADI-41204 (antibody, V domains shown)", "VH": "EVQLLESGGGLVKPGGSLRLSCAASGFTFSSYSMNWVRQAPGKGLEWVSSISAGSSYIYYADSVKGRFTISRDNAKNSLYLQMNSLRAEDTAVYYCARVPSYETTPYFDYWGQGTLVTVSS", "VL": "QSVLTQPPSVSGAPGQRVTISCTGSSSNIGSGYDLHWYQQLPGTAPKLLIYVNSNRPSGVPDRFSGSKSGTSASLAITGLQAEDEADYYCQSYDSSLSGYVFGTGTKVTVL"}, "B6": {"name": "ADI-41233 (antibody, V domains shown)", "VH": "EVQLLESGGGLVKPGGSLRLSCAASGFIFRDYYMIWIRQAPGKGLEWVSYISSSSTYTNNADSVKGRFTISRDNAKNSLYLQMNSLRAEDTAVYYCARLFASRSDGAFDIWGQGTTVTVSS", "VL": "B5 VL with S31A, L35V, G43E, V52D, S54N, K107T"}, "B7": {"name": "ADI-41226 (antibody, V domains shown)", "VH": "EVQLVESGGGLVKPGGSLRLSCAASRFTFAGYYMSWIRQAPGKGLEWVSDISPSSTYTNYADSVKGRFTISRDNAGTSVSLQMDSLRADDTAVYYCARITPYGGSHYFDSWGQGTLVTVSS", "VL": "QPVLTQPPSVSGAPGQRVTISCTGSSSNIGAGYDLHWYQQLPGTAPKLLIYGNSNRPSGVPDRFSGSKSGTSASLAITGLQAEDEADYYCQSYDNSLSGFYVFGTGTKVTVL"}, "B8": {"name": "ADI-41216 (antibody, V domains shown)", "VH": "EVQLVESGGGLVKPGESLRLSCAASGFRFSDHYMSWIRQAPGKGLEWISYISSSSSYIHYADSVTGRFTISRDNAKNSMYLQMNSLRAEDTAVYYCAREIGRSYYMDVWGKGTTVTVSS", "VL": "QSALIQPPSVSGAPGQRVTISCTGSSSNIGAGYDVHWYQQLPGTAPKLLIYGNNNRPSGVPDRFSASKSGISASLAITGVQTEDEADYYCQSYDRSLSEFYVFGSGTKVTVL"}, "B9": {"name": "ADI-41188 (antibody, V domains shown)", "VH": "QVQLQQWGAGLLKSSETLSLTCAVYGGSFSGYYWSWIRQSPGKGLEWIGEINHSGSANYNPSLKNRVTISRDTSKNQFSLWLSSVTAADTAVYYCARTSRSPEPDNYYYYMDVWGRGTTVTVSS", "VL": "QSVLTQPPSVSGAPGQRVSISCTGSSSDIGAGYDVHWYQQFPGTAPKLLMYANNNRPSGVPDRFSGSRSGTSASLAITGLQAEDEADYYCQSYDSNLDVVVFGGGTKLTVL"}, "B10": {"name": "ADI-41180 (antibody, V domains shown)", "VH": "EVQLVQSGGGLVKPGGSLRLSCAASGFTFIDYYMSWIRQAPGKGLEWVSSISGGSTYTTYADSVKGRFTISRDNGKNSLYLQMDSLRAEDTAVYYCARLGGYSYYMDVWGKGTTVTVSS", "VL": "QPVLTQPPSVSGAPGQRVTISCTGSSSNIGAGYDVHWYQHLPGAAPKLLIYDNTNRPSGIPDRFSGSKSGTSASLAITGLQAEDEADYYCQSYDSSLDWVFGGGTKVTVL"}, "B11": {"name": "ADI-41217 (antibody, V domains shown)", "VH": "EVQLVQSGGGLVKPGGSLRLSCVASGFTFSSYSMNWVRQAPGKGLEWVSSISASSSYIDYADSVKGRFTISRDNDKKSLYLQMSSLRAEDTAVYYCAREDYDSLTGYYSPKRFDPWGQGTLVTVSS", "VL": "B10 VL with P2S, V10L, H40Q, A44T, D52G, T54N, I60V, S95R, D98S, W99V"}, "B12": {"name": "ADI-41199 (antibody, V domains shown)", "VH": "QVQLVESGGGLVKPGGSLRLSCGASGFTFPDYYMSWIRQAPGKGLEWLSYISSSSSFTDYADSVKGRFTISRDNAKKSLYLQMNSLRAEDTAVYYCARVRADYVGNSRIHFDYWGQGTLVTVSS", "VL": "DIVMTQSPVTLSVSPGERATLSCRASQSLNGYLAWYQQKPGQAPRLLIYGASTRATEPGWDTSGRGSGTEFTLTISSLQSEDFAVYYCQQYNDWPFTFGQGTRLEIK"}, "B13": {"name": "ADI-41206 (antibody, V domains shown)", "VH": "EVQLLESGGGLVKPGGSLRLSCAGSGFSFSSYSMNWVRQAPEKGLEWVSSISASSSFINYADSVKGRFIISRDNAKNSLFLQMDSLRAEDTAVYYCARDGVHPGGYIFGGYIDSWGQGTLVTVSS", "VL": "QSVLTQPPSVSGAPGQRVTISCTGSSSNIGAGYDVHWFRQLPGTAPKLLIYGNNNRPSGVPDRFSGSKSGSSASLIITGLQAQDEATYYCQSYDSSLSGYVFGTGTKLTVL"}, "B14": {"name": "ADI-41234 (antibody, V domains shown)", "VH": "QVQLVQSGGGVVQPGRSLRLSCAASGFTVSSYAIHWVRQSAGKGLEWVAVEGRFTISRDNSKNTLYLQMNSLRAEDTAVYYCARLSEALVEPAAHTQYKYHYGLDVWGQGTTVTVSS", "VL": "EIVLTQSPLSLPVTPGEPASISCKSSQSLLDSNGYNYLDWYLQKPGQSPQLLIYLVSNRASGVPDRFSGSGSGTDFTLKISRVEAEDVGIYYCMQALQTPWTFGQGTKVEIK"}, "B15": {"name": "ADI-41264 (antibody, V domains shown)", "VH": "EVQLVESGGGLVKPGGSLRLSCAASGFTFSNTWMSWVRQAPGKGLEWVGHIKSKTDGGTTDYAAPVKGRFTISRDDSKSILNLHLNSLKTEDSAVYYCAALPPISGWYYTPGFWGQGTLVTVSS", "VL": "SYELTQPPSMSVSPGQTARITCFGDAVPKKYVYWYQQKSGQAPVMVIYDDRRRPSGIPERFSGSSSGARATLTISGAQVEDEADYYCYSTDGSGNPSFGGGTKLTVL"}, "B16": {"name": "ADI-41244 (antibody, V domains shown)", "VH": "QVTLKESGGGLIQPGGSLRLSCAVSGFTVSSKYMSWVRQAPGKGLEWVSVIYGGGSTYYTDSVKGRFTISRDNSNNTLYLQMNSLRAEDTAIYYCAREARSYNYDYVGNDAFDIWGQGTTVTVSS", "VL": "DIVLTQTPDSLAVSLGERATINCKSSQSVLNNFNNKNYLAWYQQKPGQPPKLLIYWASTRESGVPDRFSGSGSGTDFTLTITSLQAEDVAIYYCQQYYRTPPYTFGQGTKVDIK"}, "B17": {"name": "ADI-41236 (antibody, V domains shown)", "VH": "QVQLVQSGGGLVKPGGSLRLSCTASGFTFSDYYMDWIRQAPGKGLEWVSSISSSSTYTKYADSVKGRFTISRDNAKNSLFLQMNSLRAEDTAVYYCVRNLGPYCSSTSCFVFDYWGQGTLVTVSS", "VL": "QSVLTQPPSVSGAPGQRVSISCTGSSSNIGAGYEVHWYKQVPGTAPRLLMYDNTNRPSGVPDRVSGSKSGTSASLAITGLQAEDEADYYCQSYDNSLNKSVFGGGTKVTVL"}, "B18": {"name": "ADI-41289 (antibody, V domains shown)", "VH": "EVQLVQSGAEVKKPGESLKISCKGSGYSFSSFWIGWVRQMPGKGLEWMGIIYPGDSDTRYSPSFQGQVTISADQSIRTAYLQWNSLKASDTGLYYCAKGGLGDVEMATIAVWGQGTLVTVSS", "VL": "QSVLIQPASVSGSPGQSITIPCTGTSSDVGSYNLVSWYQHHPGKAPKLIISEGSKRPLGVSNRFSGSKSGNTASLTISGLQAEDEADYYCSSYVRSRTFNYVFGTGTKLTVL"}, "B19": {"name": "ADI-41240 (antibody, V domains shown)", "VH": "QVQLQQWGAGLLKPSETLSLICDVYGGSFSDYYWSWIRQSPGKGLEWIGEINHSGSTSFHPSLKSRISISIDTSNNQFSLNLSSMTAADTAVYYCARGTLRGYFDYWGQGTLVTVSS", "VL": "EIVLTQSPSTLSAFVGDRVTITCRASQSISRWLAWYQQKPGKAPNLLISEASSLESGVPSRFSGSGSGTEFTLTISSLQPDDLGTYYCQQYNGYLWTFGQGTKVEIK"}, "B20": {"name": "ADI-41235 (antibody, V domains shown)", "VH": "QVQLQQWGAGLLKPSETLSLTCGVYGESFSGHYWSWIRQPPGKGLEWMGEIHHSGTTNYNPSLKSRVTISVDTSKNQFSLKLNSVTAADTAVYYCARNPAEDILTGYSPPFHYYYMDVWGKGTTVTVSS", "VL": "QSVLTQPPSVSGAPGQRVTISCTGSSSNIGAGYDVHWYQQIPGTAPKLLIHSNNNRPSGVPDRFSGSKSGTSASLAITGLQAEDEADYYCQSYDSSLSVVFGGGTKLTVL"}}, "note": "Where a chain is given by its changes, count along the chain named.", "data": [{"biological_target": "Respiratory Syncytial Virus fusion glycoprotein (RSV F) on RSV-A2 virus (Respiratory Syncytial Virus subtype A (RSV-A2))", "assay": "cell-based or functional assay", "units": {"Neutralization IC50 (RSV subtype A)": "µg/mL"}, "values": [{"binder": "B1", "Neutralization IC50 (RSV subtype A)": 0.32}, {"binder": "B2", "Neutralization IC50 (RSV subtype A)": 0.07}, {"binder": "B3", "Neutralization IC50 (RSV subtype A)": 0.1}, {"binder": "B4", "Neutralization IC50 (RSV subtype A)": "> 25"}, {"binder": "B5", "Neutralization IC50 (RSV subtype A)": 0.06}, {"binder": "B6", "Neutralization IC50 (RSV subtype A)": 0.15}, {"binder": "B7", "Neutralization IC50 (RSV subtype A)": 0.15}, {"binder": "B8", "Neutralization IC50 (RSV subtype A)": 0.19}, {"binder": "B9", "Neutralization IC50 (RSV subtype A)": 0.15}, {"binder": "B10", "Neutralization IC50 (RSV subtype A)": 0.07}, {"binder": "B11", "Neutralization IC50 (RSV subtype A)": 0.04}, {"binder": "B12", "Neutralization IC50 (RSV subtype A)": 0.23}, {"binder": "B13", "Neutralization IC50 (RSV subtype A)": 0.07}, {"binder": "B14", "Neutralization IC50 (RSV subtype A)": 0.1}]}, {"biological_target": "RSV postfusion F (postF, F deltaFP) (Respiratory syncytial virus)", "assay": "BLI, IgG on sensor, 100 nM antigen", "units": {"Kd": "pM"}, "values": [{"binder": "B15", "Kd": 484}, {"binder": "B16", "Kd": 843}, {"binder": "B17", "Kd": 61300}, {"binder": "B18", "Kd": 881}, {"binder": "B19", "Kd": 1200}, {"binder": "B20", "Kd": 3240}]}, {"biological_target": "RSV prefusion F (preF, DS-Cav1) (Respiratory syncytial virus)", "assay": "BLI, IgG on sensor, 100 nM antigen", "units": {"Kd": "pM"}, "values": [{"binder": "B19", "Kd": 2150}, {"binder": "B20", "Kd": 4720}]}, {"biological_target": "RSV prefusion F (preF), DS-Cav1 (Respiratory Syncytial Virus)", "assay": "BLI, IgG on anti-human IgG sensor, 100 nM antigen", "units": {"Kd": "pM"}, "values": [{"binder": "B1", "Kd": 756}, {"binder": "B2", "Kd": 740}, {"binder": "B3", "Kd": 470}, {"binder": "B4", "Kd": 4620}, {"binder": "B5", "Kd": 545}, {"binder": "B6", "Kd": 1060}, {"binder": "B7", "Kd": 820}, {"binder": "B8", "Kd": 903}, {"binder": "B9", "Kd": 224}, {"binder": "B10", "Kd": 470}, {"binder": "B11", "Kd": 489}, {"binder": "B12", "Kd": 1730}, {"binder": "B13", "Kd": 409}, {"binder": "B14", "Kd": 1460}]}]}
